T1: recombinant human KAAG1 (Kidney associated antigen 1) (human, UniProt Q9UBP8 1-84)
T1 construct: also called KAAG1 protein
T1 sequence: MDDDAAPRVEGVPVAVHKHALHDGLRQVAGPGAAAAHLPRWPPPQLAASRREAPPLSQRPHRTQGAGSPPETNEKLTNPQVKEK


Molecular target: T1, recombinant human KAAG1 (Kidney …)
Assay: SPR (BioRad ProteOn XPR36): antibody captured on an anti-human IgG Fc surface, KAAG1 injected as analyte, 1:1 Langmuir fit
Procedure: Immediately after the activation, a 13 μg/mL solution of anti-human IgG Fc fragment specific in 10 mM NaOAc pH 4.5 was injected in the analyte direction at a flow rate of 25 μL/min until approximately 8000 resonance units (RUs) were immobilized. Remaining active groups were quenched by a 300 s injection of 1M ethanolamine at 30 μL/min in the analyte direction, and this also ensures mock-activated interspots are created for blank referencing. The screening of the 3A4 variants for binding to KAAG1 occurred in two steps: an indirect capture of 3A4 variants from cell supernatant onto the anti-human IgG Fc fragment specific surface in the ligand direction(vertical) followed by a KAAG1 injection in the analyte direction. Firstly, one buffer injection for 30 s at 100 uL/min in the ligand direction was used to stabilize the baseline. […] Four to five 3A4 variants along with wild-type 3A4 were simultaneously injected in individual ligand channels for 240 s at flow 25 μL/min. […] The first ligand channel was left empty to use as a blank control if required. This 3A4 capture step was immediately followed by two buffer injections in the analyte direction to stabilize the baseline, and then the gel filtration purified KAAG1 was injected. For a typical screen, five KAAG1 concentrations (8, 2.66, 0.89, 0.29, and 0.098 nM) and buffer control were simultaneously injected in individual analyte channels at 50 μL/min for 120 s with a 600s dissociation phase, resulting in a set of binding sensorgrams with a buffer reference for each of the captured 3A4 variants. The anti-human IgG Fc fragment specific—3A4 complexes were regenerated by a 18 s pulse of 0.85% phosphoric acid for 18 s at 100 μL/min to prepare the anti-human IgG Fc fragment specific surface for the next injection cycle. Sensorgrams were aligned and double-referenced using the buffer blank injection and interspots, and the resulting sensorgrams were analyzed using ProteOn Manager software v3.0.

Binder | Kd [nM] | koff [s⁻¹] | kon [M⁻¹ s⁻¹]
chimeric 3A4 anti-KAAG1 antibody (mouse variable regions, human IgG1/kappa constant regions) (antibody, V domains shown, It is treated here as the same molecule; also called LcHc; murine 3A4 (LcHc)) VH: QIQLVQSGPEMVKPGASVKMSCKASGYTFTDDYMSWVKQSHGKSLEWIGDINPYNGDTNYNQKFKGKAILTVDKSSSTAYMQLNSLTSEDSAVYYCARDPGAMDYWGQGTSVTVSS VL: DVVMTQTPLSLAVSLGDQASISCRSSQSLLHSNGNTYLEWYLQKPGQSPKLLIHTVSNRFSGVPDRFSGSGSGTDFTLKISRVEAEDLGVYYCFQGSHVPLTFGAGTRLELKR | 0.016 | 0.000121 | 7.72e+06

Molecular target: T1, recombinant human KAAG1 (Kidney …)
Assay: not described; list of antibodies generated

Binder | binding result
3D3 anti-KAAG1 antibody (antibody, V domains shown) VH: EVQLQQSVAELVRPGASVTLSCKASGYIFTDYEIHWVKQTPVHGLEWIGVIDPETGNTAFNQKFKGKATLTADISSSTAYMELSSLTSEDSAVYYCMGYSDYWGQGTTLTVSS VL: DIVMTQSPSSLAVSIGQKVTMNCKSSQSLLNSNFQKNFLAWYQQKPGQSPKLLIYFASTRESSIPDRFIGSGSGTDFTLTISSVQAEDLADYFCQQHYSTPLTFGAGTKLELK | binds
3B1 anti-KAAG1 antibody (antibody, V domains shown, Variable regions only; Isolated from a Fab library) VH: QVQLQQPGAELVRPGASVTLSCKASGYTFTDYEIHWVKQTPVHGLEWIGVIDPETGGTAYNQKFKGKATLTTDKSSSTAYMELRSLTSEDSAVYYCMGYSDYWGQGTTLTVSS VL: not shown | binds
3B8 anti-KAAG1 antibody (antibody, V domains shown, Variable regions only; Isolated from a Fab library) VH: EVQLQQSGAELVRPGASVTLSCKASGYTFTDYEIHWVKQTPVHGLEWIGVIDPETGDTAYNQNFTGKATLTADKSSSTAYMELSSLTSEDSAVYYCMGYADYWGQGTTLTVSS VL: not shown | binds
3B11 anti-KAAG1 antibody (antibody, V domains shown, Variable regions only; Isolated from a Fab library) VH: EVQLQQSVAELVRPGASVTLSCKASGYTFTDYEMHWVKQTPVRGLEWIGVIDPATGDTAYNQKFKGKATLTADKSSSAAFMELSSLTSEDSAVYYCMGYSDYWGQGTTLTVSS VL: not shown | binds
3C3 anti-KAAG1 antibody (antibody, V domains shown, Variable regions only; Isolated from a Fab library) VH: EVQLQQSVAEVVRPGASVTLSCKASGYTFTDYEIHWVKQTPVHGLEWIGVIDPETGVTAYNQRFRDKATLTTDKSSSTAYMELSSLTSEDSAVYFCMGYSDYWGQGTTLTVSS VL: not shown | binds
3E9 anti-KAAG1 antibody (antibody, V domains shown, Variable regions only; Isolated from a Fab library) VH: EVQLQQSGAELVRPGASATLSCKASGYTFTDYEMHWVKQTPVHGLEWIGVIDPETGSTAYNQKFKGKATLTADKSSSTAYMELSSLTSEDSAVYYCMGYADYWGQGTTLTVSS VL: not shown | binds
3E12 anti-KAAG1 antibody (antibody, V domains shown, Variable regions only; Isolated from a Fab library) VH: QVQLQQSEAELVKPGASVKLSCKASGYTFTDYEIHWVKQTPVHGLEWIGVIDPETGDTAYNQKFKGKATLTADKSSSTAYMELSRLTSEDSAVYYCMGHSDYWGQGTTLTVSS VL: not shown | binds
3F4 anti-KAAG1 antibody (antibody, V domains shown, Variable regions only; Isolated from a Fab library) VH: EVQLQQSGAELVRPGASVTLSCKASGYTFTDYEIHWVKQTPVHGLEWIGVIDPETGSTAYNQKFKGKATLTADKASSTAYMELSSLTSEDSAVYYCMGYSDYWGQGTTLTVSS VL: DIVMTQSPSSLTVTAGEKVTMSCKSSQSLLNTSNQKNYLAWYQQKPGQSPKLLVYFASTRASGVPDRFIGSGSGTDFTLTISSVQAEDLADYFCQQHYSTPLTFGAGTKLELK | binds
3F7 anti-KAAG1 antibody (antibody, V domains shown, Variable regions only; Isolated from a Fab library) VH: QAYLQQSGAELVRPGASVTLSCKASGYTFTDYEIHWVKQTPVHGLEWIGVIDPETGDTAYNQKFKDKATLTADKASSTAYMELSSLTSEDSAVYYCMGYSDYWGQGTTLTVSS VL: not shown | binds
3F10 anti-KAAG1 antibody (antibody, V domains shown, Variable regions only; Isolated from a Fab library) VH: EVQLQQSVAELVRPGAPVTLSCKASGYTFTDYEVHWVKQTPVHGLEWIGVIDPETGATAYNQKFKGKATLTADKSSSAAYMELSRLTSEDSAVYYCMSYSDYWGQGTTLTVSS VL: DIVMTQSPSSLTMSVGQKVTMSCKSSQSLLNTSNQLNYLAWYQQKPGQSPKLLVYFASTTESGVPDRFIGSGSGTDFTLTISSVQAEDLADYFCQQHYSTPLTFGAGTKLELK | binds
3G5 anti-KAAG1 antibody (antibody, V domains shown, Variable regions only; Isolated from a Fab library) VH: QVQLQQPGAELVRPGASVTLSCKASGYTFTDYEIHWVKQTPVHGLEWIGVLDPGTGRTAYNQKFKDKATLSADKSSSTAYMELSSLTSEDSAVYYCMSYSDYWGPGTTLTVSS VL: not shown | binds
3G8 anti-KAAG1 antibody (antibody, V domains shown, Variable regions only; Isolated from a Fab library) VH: QVQLKQSGAELVRPGASVTLSCKASGYTFTDYEVHWVKQTPVHGLEWIGVIDPATGDTAYNQKFKGKATLTADKSSSTAYMEVSSLTSEDSAVYYCMGYSDYWGQGTTLTVSS VL: not shown | binds
3G12 anti-KAAG1 antibody (antibody, V domains shown, Variable regions only; Isolated from a Fab library) VH: EVQLQQSVAELVRPGASVTVSCKASGYIFTDYEIHWVKQTPAHGLEWIGVIDPETGNTAFNQKFKGKATLTADISSSTAYMELSSLTSEDSAVYYCMGYSDYWGQGTTLTVSS VL: DIVMTQSPKFMSTSVGDRVSITCKASQDVGTAVAWYQQKPGQSPELLIYWTSTRHTGVPDRFSGSGSGTDFTLTISSVQAEDLADYFCQQHYSIPLTFGAGTKLELR | binds
4A2 anti-KAAG1 antibody (antibody, V domains shown, Variable regions only; Isolated from a Fab library) VH: QVKLQQSGTELVRPGASVTLSCKASGYKFTDYEMHWVKQTPVHGLEWIGGIDPETGGTAYNQKFKGKAILTADKSSTTAYMELRSLTSEDSAVYYCISYAMDYWGQGTSVTVSS VL: DIVMTQSPSSLAMSVGQKVTMNCKSSQSLLNNSNQKNYLAWYQQKPGQSPKLLLYFASTRESGVPDRFIGSGSGTYFTLTISSVQAEDLADYFCQQHYSTPLTFGAGTKLDLK | binds
3D1 anti-KAAG1 antibody (antibody, V domains shown, Variable regions only; Isolated from a Fab library) VH: EVQLQESGPDLVKPSQSLSLTCTVTGFSITSGYGWHWIRQFPGDKLEWMGYISFNGDYNYNPSLKSRISITRDTSKNQFFLQLSSVTTEDTATYYCASSYDGLFAYWGQGTLVTVSA VL: DIKMTQSPSSMYASLGERVTITCKASQDIHTYLNWFQQKPGKSPETLIYRANRLVDGVPSRFSGSGSGQDYSLTISSLEYEDMGIYYCLQYDEFPLTFGAGTKLELK | binds
3C2 anti-KAAG1 antibody (antibody, V domains shown, Variable regions only; Isolated from a Fab library) VH: DVQLQESGPDLVKPSQSLSLTCTVTGFSITSGYGWHWIRQFPGNKLEWMGYISFNGDSNYNPSLKSRISITRDTSKNQFFLQLNSVTSEDTATYYCASSYDGLFAYWGQGPLVTVSA VL: DIQMTQSPSSMYASLGERVTLTCKASQDIHNYLNWFQQKPGKSPKTLIHRANRLVAGVPSRFSGSGSGQDYSLTISSLEYEDLGIYYCLQYDAFPLTFGAGTKLELK | binds
3E6 anti-KAAG1 antibody (antibody, V domains shown, Variable regions only; Isolated from a Fab library) VH: QVQLQQSGAELVRPGASVTLSCKASGYTFSDYEMHWVKQTPVHGLEWIGGIDPETGDTVYNQKFKGKATLTADKSSSTAYMELSSLTSEDSAVYYCISYAMDYWGQGTSVTVSS VL: DIQMTQSPSSMYASLGERVTLTCKASQDIHNYLNWFQQKPGKSPKTLIHRANRLVAGVPSRFSGSGSGQDYSLTISSLEYEDLGIYYCLQYDAFPLTFGAGTKLELK | binds
3C4 anti-KAAG1 antibody (antibody, V domains shown) VH: EVQLQESGPDLVKPSQSLSLTCTVTGFSITSGYGWHWIRQFPGNKLEWMGYINYDGHNDYNPSLKSRISITQDTSKNQFFLQLNSVTTEDTATYYCASSYDGLFAYWGQGTLVTVSA VL: DIVMSQSPSSMYASLGERVTITCKASQDIHNFLNWFQQKPGKSPKTLIFRANRLVDGVPSRFSGSGSGQDYSLTISSLEFEDLGIYSCLQYDEIPLTFGAGTKLELR | binds
